Source: PMC10949515 (Journal of Virology, 2024)
Positions count from the first letter of the chain named.

T1: human FLNB C-terminal fragment R23–24, His6-tagged (human, UniProt O75369 2379-2601)
T1 construct: also called R23–R24; FLNB R23-24
T1 sequence (looked up): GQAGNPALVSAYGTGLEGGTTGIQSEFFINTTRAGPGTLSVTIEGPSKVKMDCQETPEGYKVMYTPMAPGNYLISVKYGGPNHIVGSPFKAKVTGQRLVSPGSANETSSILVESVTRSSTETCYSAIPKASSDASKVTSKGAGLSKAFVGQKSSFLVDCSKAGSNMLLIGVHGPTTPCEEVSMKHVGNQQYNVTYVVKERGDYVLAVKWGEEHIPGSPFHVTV

T2: FLNB R22–24 dimerization-deficient mutant (M2544E, L2546D), His6-tagged (human, UniProt O75369 2282-2601, M2544E | L2546D)
T2 construct: also called mR22–R24; mR22–24
T2 sequence (looked up): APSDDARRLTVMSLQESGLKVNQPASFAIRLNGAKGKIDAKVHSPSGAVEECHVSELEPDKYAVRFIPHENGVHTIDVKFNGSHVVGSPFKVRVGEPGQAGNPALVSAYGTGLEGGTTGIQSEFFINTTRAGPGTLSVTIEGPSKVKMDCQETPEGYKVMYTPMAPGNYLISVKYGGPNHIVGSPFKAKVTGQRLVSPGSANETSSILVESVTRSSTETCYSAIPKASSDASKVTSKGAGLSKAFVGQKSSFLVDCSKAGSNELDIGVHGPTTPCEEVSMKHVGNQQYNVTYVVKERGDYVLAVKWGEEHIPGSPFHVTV

B1: human FLNB C-terminal fragment R22–24, His6-tagged (domain or fragment, UniProt O75369 2282-2601, looked up)
chain: T2 sequence (looked up) with E263M, D265L
notes: also called R22–R24; FLNB R22-24
B2: C4 N-terminal residues 1–149, His6-tagged (domain or fragment)
chain: MDTIKIFNHGEFDTIRNELVNLLKVVKWNTINSNVTVSSTDTIDISDCIREILYKQFKNVRNIEVSSDISFIKYNRFNDTTLTDDNVGYYLVIYLNRTKSVKTLIYPTPETVITSSEDIMFSKSLNFRFENVKRDYKLVMCSISLTYKP
notes: also called C4-N 1–149

Assays:
[1] = target: the molecule itself
[2] = target: B1; assay: ITC; conditions: both partners purified
[3] = target: T1, human FLNB C-terminal fragment R23–24, …; assay: ITC; conditions: both partners purified
[4] = target: T2, FLNB R22–24 dimerization-deficient …; assay: SEC; conditions: both partners purified

Binder | binding result [1] | Kd [2] [nM] | Kd [3] [nM] | binding result [4]
B1 | binds |  |  | 
B2 |  | 41.5 ± 30 | < 1 | binds
